From patent US10603364B2, “Lysosomal targeting and uses thereof” (Shire Human Genetic Therapies, Inc., priority 2014, dated 2020)

Tests used:
Naglu KO mice [1] = assay: Immunohistochemical staining of Lamp-1, GFAP and Iba-1 in brain and liver; assay type: in vivo; settings: intrathecal
Procedure: (§1) To evaluate the in vivo activity of Naglu-SPP and its efficacy as a therapeutic for the treatment of lysosomal storage diseases, particularly San B, Naglu-SPP was administered to Naglu KO mice via intrathecal injection. Intrathecal administration of Naglu-IGFII served as a positive control. The experimental conditions used for this assay are described in Tables 10 and 11 below.
The lysosomal targeting of Naglu-SPP and Naglu-IGFII was further examined by immunohistochemical analysis. Tissue samples were collected, fixed in 10% NBF and processed for paraffin embedding. For each tissue assayed, 5 μm paraffin sections was subjected to immunostaining using antibodies against lamp lysosomal associated membrane protein 1 (Lamp-1), glial fibrillary acidic protein (GFAP) and the ionized calcium-binding adapter molecule 1 (Iba-1).

Naglu KO mice [2] = assay: Total glycosaminoglycan (GAG) in liver and brain, dimethylmethylene blue; assay type: in vivo; settings: intrathecal, 520 mg/kg brain; brain significant in 2× and 3× weekly groups
Procedure: as §1
The activity of Naglu-SPP and Naglu-IGFII in vivo was also evaluated by examining the intracellular accumulation of natural substrates of Naglu in treated mice. One such assay was designed to evaluate the total concentration of glycosaminoglycan (GAG) in liver (FIG. 11A) and brain (FIG. 11B) tissue of treated mice in accordance with de Jong et al. (Clin Chem 38(6):803-807, 1992). Briefly, liver tissue was homogenized and total GAG quantified using dimethylmethylene blue. Brain tissue was homogenized and then incubated with pronase and benzonase to break down protein and nucleic acid. Total GAG was then extracted by passing the brain homogenate through a DEAE column. The eluate was further buffer exchanged through a desalting column, and the total GAG content was quantified using dimethylmethylene blue. […] The reduction of total GAG amount in brain tissue was significant in the 2× weekly as well as the 3× weekly treatment groups.

wild-type rats = assay: Immunohistochemistry of Naglu protein in brain tissue after intrathecal administration; assay type: in vivo
Procedure: To evaluate biodistribution of the SORT1-binding Naglu fusion proteins, an in vivo study was conducted using wild-type rats subjected to intrathecal administration of vehicle control (PBS), rhNaglu, Naglu-IGFII, Naglu-SPP, Naglu-SapDC or Naglu-tPRGN. Details of the experimental design are provide in Table 9 below. Previous experiments had shown that Naglu-IGFII but not rhNaglu penetrates into brain tissue and is targeted to lysosomes after intrathecal injection. Accordingly, rhNaglu and Naglu-IGFII were utilized in this study as negative and positive controls, respectively.
Rats were sacrificed either 4 or 24 hours post intrathecal administration of the respective fusion protein. Brain tissue samples were collected, fixed in 10% NBF and processed for paraffin embedding. 5 μm paraffin sections from each tissue assayed were subjected to immunostaining using an anti-human Naglu antibody.

[3] = tested on: SORT1 overexpressing cells; assay: Cellular uptake in Sortilin overexpressing cells (intracellular Naglu enzyme activity); assay type: cell-based; settings: absence of Neurotensin
Procedure: A cell line was established overexpressing SORT1, using standard technologies known in the art. […] After a specified period of time, the supernatant was removed and the cells were washed repeatedly. Then, cells were lysed and each sample was assayed for Naglu enzyme activity.

B1: Naglu-SPP: Fusion protein of human Naglu and SORT1 propeptide (SPP) via GAG3 linker; SEQ ID NO:17 (full-length), SEQ ID NO:22 (protein)
chain: MEAVAVAAAVGVLLLAGAGGAAGDEAREAAAVRALVARLLGPGPAADFSVSVERALAAKPGLDTYSLGGGGAARVRVRGSTGVAAAAGLHRYLRDFCGCHVAWSGSQLRLPRPLPAVPGELTEATPNRYRYYQNVCTQSYSFVWWDWARWEREIDWMALNGINLALAWSGQEAIWQRVYLALGLTQAEINEFFTGPAFLAWGRMGNLHTWDGPLPPSWHIKQLYLQHRVLDQMRSFGMTPVLPAFAGHVPEAVTRVFPQVNVTKMGSWGHFNCSYSCSFLLAPEDPIFPIIGSLFLRELIKEFGTDHIYGADTFNEMQPPSSEPSYLAAATTAVYEAMTAVDTEAVWLLQGWLFQHQPQFWGPAQIRAVLGAVPRGRLLVLDLFAESQPVYTRTASFQGQPFIWCMLHNFGGNHGLFGALEAVNGGPEAARLFPNSTMVGTGMAPEGISQNEVVYSLMAELGWRKDPVPDLAAWVTSFAARRYGVSHPDAGAAWRLLLRSVYNCSGEACRGHNRSPLVRRPSLQMNTSIWYNRSDVFEAWRLLLTSAPSLATSPAFRYDLLDLTRQAVQELVSLYYEEARSAYLSKELASLLRAGGVLAYELLPALDEVLASDSRFLLGSWLEQARAAAVSEAEADFYEQNSRYQLTLWGPEGNILDYANKQLAGLVANYYTPRWRLFLEALVDSVAQGIPFQQHQFDKNVFQLEQAFVLSKQRYPSQPRGDTVDLAKKIFLKYYPRWVAGSWGAPGGGGGAAAAAGGGGGGAPGGGGGAAAAAGGGGGGAPGGGGGAAAAAGGGGGGAPQDRLDAPPPPAAPLPRWSGPIGVSWGLRAAAAGGAFPRGGRWRR
Naglu KO mice [1]; 2× weekly and 3× weekly
  Lamp-1 immunostaining in brain (cerebral cortex, cerebellum, thalamus, striatum, white matter): decrease
Naglu KO mice [1]; three weekly deliveries
  Lamp-1 immunoreactivity in liver: reduced significantly
Naglu KO mice [1]; three weekly injections
  GFAP staining in cerebral cortex and cerebellum (astrocytes): reduced signal
  Iba-1 staining in cerebral cortex and cerebellum (microglial cells): microglial cells are reduced in size and have a smaller number of processes
Naglu KO mice [2]
  total GAG concentration in liver and brain tissue vs vehicle control: significant reduction
wild-type rats; 4 and 24 hours post treatment
  Naglu immunostaining in cerebral cortex / brain parenchyma: positive staining
wild-type rats; 24 hours post injection
  Naglu immunostaining in cerebellum and hippocampal region: strong Naglu signal
[3]
  Bmax of binding/uptake: 1260 nmol/h/mg
  cellular internalization (intracellular Naglu activity): effectively internalized
